Experimental data taken from paper doi:10.1101/2022.11.03.515106 (bioRxiv, 2022).

T1: GFP-DBR1 (human, UniProt Q9UK59 1-544)
T1 sequence: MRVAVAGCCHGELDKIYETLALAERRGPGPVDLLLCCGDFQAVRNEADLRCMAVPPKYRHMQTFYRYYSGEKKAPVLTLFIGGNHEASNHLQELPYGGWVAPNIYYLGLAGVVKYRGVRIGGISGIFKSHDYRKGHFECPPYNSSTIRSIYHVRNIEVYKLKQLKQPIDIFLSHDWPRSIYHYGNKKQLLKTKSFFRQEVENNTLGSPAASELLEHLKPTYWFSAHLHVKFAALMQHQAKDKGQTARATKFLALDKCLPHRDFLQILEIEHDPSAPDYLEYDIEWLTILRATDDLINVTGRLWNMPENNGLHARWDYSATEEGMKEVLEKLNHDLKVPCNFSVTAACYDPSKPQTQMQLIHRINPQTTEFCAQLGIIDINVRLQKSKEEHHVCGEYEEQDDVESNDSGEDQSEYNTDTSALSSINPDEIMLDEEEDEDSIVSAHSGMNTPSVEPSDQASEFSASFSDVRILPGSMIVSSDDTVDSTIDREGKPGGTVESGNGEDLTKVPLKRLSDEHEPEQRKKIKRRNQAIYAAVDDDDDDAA

T2: His-Flag-DBR1 (human, UniProt Q9UK59 1-544)
T2 sequence (looked up): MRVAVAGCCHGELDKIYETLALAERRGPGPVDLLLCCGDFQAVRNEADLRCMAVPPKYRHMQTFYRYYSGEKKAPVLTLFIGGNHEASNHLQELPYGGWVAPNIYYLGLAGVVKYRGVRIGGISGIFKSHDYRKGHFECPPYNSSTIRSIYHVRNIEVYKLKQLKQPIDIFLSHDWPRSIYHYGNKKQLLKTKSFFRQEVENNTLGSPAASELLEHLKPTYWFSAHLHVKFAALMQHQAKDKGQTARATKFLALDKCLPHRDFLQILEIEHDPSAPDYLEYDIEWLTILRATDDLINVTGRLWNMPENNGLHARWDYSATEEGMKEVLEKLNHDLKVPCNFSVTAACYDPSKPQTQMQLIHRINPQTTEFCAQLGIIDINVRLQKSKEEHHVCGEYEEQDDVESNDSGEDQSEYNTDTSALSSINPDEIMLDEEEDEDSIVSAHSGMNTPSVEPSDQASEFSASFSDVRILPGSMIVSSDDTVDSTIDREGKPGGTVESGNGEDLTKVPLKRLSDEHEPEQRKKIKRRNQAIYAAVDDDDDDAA


What was measured:
GFP-DBR1 = molecular target: T1, GFP-DBR1; assay: pull-down
His-Flag-DBR1 = molecular target: T2, His-Flag-DBR1; assay: pull-down

Row | binding result (GFP-DBR1) | binding result (His-Flag-DBR1) | Binder
1 | binds |  | TTDN1-mCherry (natural protein, human, UniProt Q8TAP9 1-179, looked up) MQRQNFRPPTPPYPGPGGGGWGSGSSFRGTPGGGGPRPPSPRDGYGSPHHTPPYGPRSRPYGSSHSPRHGGSFPGGRFGSPSPGGYPGSYSRSPAGSQQQFGYSPGQQQTHPQGSPRTSTPFGSGRVREKRMSNELENYFKPSMLEDPWAGLEPVSVVDISQQYSNTQTFTGKKGRYFC
2 |  | binds | GST-TTDN1 (natural protein, human, UniProt Q8TAP9 1-179, looked up) MQRQNFRPPTPPYPGPGGGGWGSGSSFRGTPGGGGPRPPSPRDGYGSPHHTPPYGPRSRPYGSSHSPRHGGSFPGGRFGSPSPGGYPGSYSRSPAGSQQQFGYSPGQQQTHPQGSPRTSTPFGSGRVREKRMSNELENYFKPSMLEDPWAGLEPVSVVDISQQYSNTQTFTGKKGRYFC
